Key:
Test in all cases: cells, lysate or membranes named
[1] = substrate: O=C(CO)COP(=O)(O)O; assay type: biochemical, C. acetobutylicum; conditions: other: substrate dihydroxyacetone phosphate 0.15-1.5 mM, crude extract, imidazole-HCl pH 7.0, 30° C.
Excerpt: (§1) 1,2-Propanediol pathway branches from glycolysis and competes for the intermediate dihydroxyacetone phosphate, with the glycolytic pathway. […] We amplified the mgsA genes from the microorganisms: C. acetobutylicum (ATCC#824), B. subtilis 168, C. difficile R20291, E. coli MG1655, T. thermophilus HB27, K. pneumoniae MGH78578, P. fluorescens Pf-5, and R. eutropha H16 respectively. These genes were cloned and expressed in wild type E. coli BW25113 using eight plasmids pRJ1-pRJ8. Each gene was under the control of the IPTG-inducible pLlacO1 promoter. Using dihydroxyacetone-phosphate as the substrate, we successfully detected the functional expression of all mgsA genes in vitro, where the specific activities varied from 0.0052 U/mg to 0.1242 U/mg (Table 1). […] Without the over-expression of mgsA gene, we also detected the native expression of E. coli mgsA, which gave a specific activity of only 0.0008 U/mg, much lower than that of any over-expression.
(§2) Using the primers listed in Table 5, the mgsA genes were PCR amplified from the genomic DNA of C. acetobutylicum (ATCC824), B. subtilis 168, Clostridium difficile R20291, E. coli MG1655, Thermus thermophilus HB27, K. pneumoniae MGH78578, Pseudomonas fluorescens Pf-5, and Ralstonia eutropha H16 respectively. […]
(§3) The assay was carried out using a two-step procedure. […] The samples were diluted 10 times before measuring the absorbance at 550 nm.

[2] = substrate: O=C(CO)COP(=O)(O)O; assay type: biochemical, R. eutropha; conditions: other: substrate dihydroxyacetone phosphate 0.15-1.5 mM, crude extract, imidazole-HCl pH 7.0, 30° C.
Excerpt: as §1, §2, §3

[3] = substrate: O=C(CO)COP(=O)(O)O; assay type: biochemical, P. fluorescens; conditions: other: substrate dihydroxyacetone phosphate 0.15-1.5 mM, crude extract, imidazole-HCl pH 7.0, 30° C.
Excerpt: as §1, §2, §3

[4] = substrate: CC(=O)C=O; assay type: biochemical, E. coli; conditions: other: substrate methylglyoxal 20-120 mM, 0.25 mM NADH, crude extract, imidazole-HCl pH 7.0, 37° C.
Protocol: When the gene is over-expressed by pRJ10, the specific activity was determined to be 1.62±0.012 U/mg.

[5] = substrate: O=C(CO)COP(=O)(O)O; assay type: biochemical, B. subtilis; conditions: other: substrate dihydroxyacetone phosphate 0.15-1.5 mM, crude extract, imidazole-HCl pH 7.0, 30° C.
Excerpt: as §1, §2, §3

[6] = substrate: O=C(CO)COP(=O)(O)O; assay type: biochemical, T. thermophilus; conditions: other: substrate dihydroxyacetone phosphate 0.15-1.5 mM, crude extract, imidazole-HCl pH 7.0, 30° C.
Excerpt: as §1, §2, §3

B1: Clostridium acetobutylicum (ATCC 824) methylglyoxal synthase (mgsA), wild type (Clostridium acetobutylicum ATCC 824) (protein)
chain: MNSKKKIALVAHDNRKKALISWCEANSEVLSNHSLCGTGTTAKLIKEATGLEVFPYKSGPMGGDQQIGAAIVNEDIDFMIFFWDPLTAQPHDPDVKALLRISVLYDIPIAMNESTAEFLIKSPIMKEQHERHIIDYYQKIRKDNF
Q: B1 was tested. Which Km [1] did it give?
A: 776 ± 5 µM

B2: Ralstonia eutropha H16 methylglyoxal synthase (mgsA), wild type (Cupriavidus necator H16) (protein)
chain: MTRPRIALIAHDHKKDDIVAFATRHRAFLSQCELLATGTTGGRLIDEVGLEVTRMLSGPWGGDLQIGAQLAVGLVRAVVFLRDPMTPQPHEPDINALVRACDVHNVPCATNVATAELLIAGLAREVDEAAAS
Q: Which Km [2] does the source give for B2 here?
A: 700 ± 30 µM

B3: Pseudomonas fluorescens Pf-5 methylglyoxal synthase (mgsA), wild type (Pseudomonas protegens Pf-5) (protein)
chain: MIGISFTHKTMAARKRIALVAHDHCKAFLLEWAGRQKARLAEHELVATGTTGLLLSKHLGLPVESMISGPLGGDQQLGAQIAEQRVDLLVFFWDPFEPQPHDPDIKALLRVAAVWNIPVACNECSADYLLSSPLMNQAHEHRIPDYQAYLAGRG
Q: B3 was tested. Which Km [3] did it give?
A: 1560 ± 20 µM

B4: E. coli MG1655 methylglyoxal reductase (ydjG), wild type (Escherichia coli K-12) (protein)
chain: MKKIPLGTTDITLSRMGLGTWAIGGGPAWNGDLDRQICIDTILEAHRCGINLIDTAPGYNFGNSEVIVGQALKKLPREQVVVETKCGIVWERKGSLFNKVGDRQLYKNLSPESIREEVAASLQRLGIDYIDIYMTHWQSVPPFFTPIAETVAVLNELKSEGKIRAIGAANVDADHIREYLQYGELDIIQAKYSILDRAMENELLPLCRDNGIVVQVYSPLEQGLLTGTITRDYVPGGARANKVWFQRENMLKVIDMLEQWQPLCARYQCTIPTLALAWILKQSDLISILSGATAPEQVRENVAALNINLSDADATLMREMAEALER
Q: How did the Km [4] turn out when B4 was run?
A: 3310 ± 20 µM

B5: Bacillus subtilis 168 methylglyoxal synthase (mgsA), wild type (Bacillus subtilis subsp. subtilis str. 168) (protein)
chain: MKIALIAHDKKKQDMVQFTTAYRDILKNHDLYATGTTGLKIHEATGLQIERFQSGPLGGDQQIGALIAANALDLVIFLRDPLTAQPHEPDVSALIRLCDVYSIPLATNMGTAEILVRTLDEGVFEFRDLLRGEEPNV
Q: Which Km [5] does the source give for B5 here?
A: 473 ± 70 µM

B6: Thermus thermophilus HB27 methylglyoxal synthase (mgsA), wild type (Thermus thermophilus HB27) (protein)
chain: MKALALIAHDAKKDEMVAFCLRHKDVLARYPLLATGTTGARIQEATGLAVERVLSGPLGGDLQIGARVAEGKVLAVVFLQDPLTAKPHEPDVQALMRVCNVHGVPLATNLVAAEALIAWIRKGTPQ
Q: How did the Km [6] turn out when B6 was run?
A: 2118 ± 70 µM

Source: patent US20140134690A1, “MICROBES AND METHODS FOR PRODUCING 1-PROPANOL” (University of Georgia Research Foundation, Inc., priority 2012, published 2014)
